± gives the uncertainty stated by the source.
Assay: amyloid nucleation score (Sup35N fusion, yeast selection) (log enrichment); library NNK1; higher = more nucleation; inactive = no reads after selection
Procedure, shortened: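 The nucleation score is the log enrichment of output over input reads, calculated with DiMSum and centred on the mode score of non-aggregating sequences. Sequences with under 100 input reads were excluded. Reads came from Illumina sequencing of plasmid inserts from psi-negative yeast expressing Sup35N fused to peptides of 20 random codons, induced 24 hours with 100 μM copper sulfate and grown 7 days at 30°C without adenine and uracil.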

Row | Substance | amyloid nucleation score
1 | RGPLVFYLFTFWLCDRGNVL | 0.046 ± 0.58
2 | RGQQPFVTLKRAVFKSINTD | -0.02 ± 0.41
3 | RGRSIDVPRE | -0.004 ± 0.53
4 | RGRTRLKFLCLLYWWGKTKG | -0.4 ± 0.44
5 | RGSCMIVGKACS | -0.37 ± 0.33
6 | RGSRTY | 0.17 ± 0.53
7 | RGSVFPCNVQVDWLRPETRA | -0.047 ± 1.1
8 | RGSVWATSCRIAKPIVFWGW | inactive
9 | RGVYVWKGSSLH | -0.377 ± 1.1
10 | RGYVCTVVLSNILLGITTEG | 3.79 ± 0.097
11 | RHDALLSGLYHCRCNQLNVC | 4.2 ± 0.074
12 | RHPSWLYDVFNIVLVITACW | -0.062 ± 0.97
13 | RHSGDFLVFMYKGVLVWSTG | 3.24 ± 0.092
14 | RHVDRLVLWHEDSVAPGETN | 0.394 ± 0.49
15 | RIELLWRKVSGKCLVQDFDI | 0.117 ± 0.47
16 | RIFLSVLLLMTVNVSVWPCH | -1.23 ± 1.5
17 | RIFYFPSLRRKGDYNWRMVV | 0.27 ± 0.39
18 | RIGTFGNDNSMFRSDVLSVS | 0.579 ± 0.35
19 | RIGTTWMMCIPWVLNCNV | 6.945 ± 0.051
20 | RIIYGCCAVRFARSMAKHPM | -0.716 ± 0.38
21 | RILAIIVGVSAVSKKSNNEL | 0.913 ± 0.48
22 | RILYSSSSAFIGIYSLFVII | 0.292 ± 0.23
23 | RIMGFRTFEHWIININYLLL | -0.094 ± 0.41
24 | RINLVDLMWMRHWRMGNI | 1.41 ± 0.29

Row | Substance | amyloid nucleation score
25 | RIRNSEAGMLYTLYVTRLVD | -0.007 ± 0.31
26 | RIYILIDYSVYFSSIELLHF | -1.67 ± 1.1
27 | RKFAFKSIWSWYRI | 0.533 ± 0.54
28 | RKFSNLVGRYALFICLKSLT | -0.28 ± 0.3
29 | RKSLTGYKYCMKWGTIVAPN | 0.745 ± 0.59
30 | RKVMKTRVSIDHVNFAERRF | 1.82 ± 0.29
31 | RKVSANRFSYWRMGKGMYPV | 0.042 ± 0.34
32 | RLAGKHKRTDTRSKRTPVLR | 0.495 ± 0.47
33 | RLASRCLLALGMEWLIPMER | 2.6 ± 0.11
34 | RLCQVDEAASTESRKAKWGR | 0.075 ± 0.35
35 | RLDIDFNGLRMFLNVFLMVV | -0.188 ± 0.2
36 | RLFCGSWDNFREGE | -0.063 ± 0.58
37 | RLFPDAMDSRRYIKWQRVV | 0.215 ± 0.42
38 | RLFRNTPSDFTFVYTCGRDA | 0.497 ± 0.57
39 | RLFSENMQEVMV | -0.698 ± 0.52
40 | RLGTSAMRCQP | 0.038 ± 0.78
41 | RLHSKRAHTRS | inactive
42 | RLMSADFMQQEMMRGKVMAG | -0.351 ± 0.41
43 | RLMSNYHEGAAHKGGKHMPW | -0.495 ± 0.65
44 | RLNVILGLTSTLNYSSVMPR | 3.67 ± 0.17
45 | RLRLIFTCMR | 3.08 ± 0.11
46 | RLRPTTAASSLCSVLVPR | -0.097 ± 1.1
47 | RLSNLVRPLDRLIGVVEVGM | 0.469 ± 0.42
48 | RLSTFSFMVSICTHCLLYTN | 1.06 ± 0.59

Row | Substance | amyloid nucleation score
49 | RLVCKFRMRKSNRGVRNMLC | 0.797 ± 0.53
50 | RLYIHHVIHVDKYNFGVYPP | 0.245 ± 0.32
51 | RMDFIHISTAIFSKEVDSRR | 1.04 ± 0.47
52 | RMGNLEKCKEPGVVNRWLGI | -0.507 ± 0.52
53 | RMHRTDWASIHKDGRPQRRF | 1.23 ± 0.76
54 | RMMLHRGLYYNVMLNYSLI | 0.86 ± 0.47
55 | RMSNDITNFSFTIVTM | 3.86 ± 0.08
56 | RMYITMSQSRKVVICVMMVM | -0.164 ± 1.1
57 | RMYWVDFAGLFIDCL | inactive
58 | RNCLFVFGSLGYCSERAYKL | 6.7 ± 0.087
59 | RNFPWQGFYSTCMMPHF | 0.986 ± 0.6
60 | RNIVRFCNRSFRILLRGSAT | inactive
61 | RNLQILQDYKPSSNQCGRKE | -0.885 ± 0.71
62 | RNSDFHFIFWY | 0.865 ± 0.37
63 | RNVCIIVVSEW | 6.589 ± 0.056
64 | RNYCDPGAFGVWGVTGHHRV | -0.816 ± 0.92
65 | RPEISTPFMYGYFVSGVGVA | inactive
66 | RPKCWWVIGCIKRKSMSIGR | 2.17 ± 0.081
67 | RPPNISLSQFYDVSCAKLRC | 0.295 ± 0.31
68 | RPRSDSRGTRKDNGFDDVKL | 0.438 ± 0.39
69 | RQFIELKCLFPMADVIVF | 0.315 ± 0.38
70 | RQFSSTRFCREHRITGMQLG | 0.369 ± 0.79
71 | RQSRVQGMYHY | 1.28 ± 0.48
72 | RRATLSHAPGGPMGLEWSRW | 0.444 ± 1.2

Row | Substance | amyloid nucleation score
73 | RRCLSIPLVCFRDKNMNMGF | -0.246 ± 0.46
74 | RREVRCSQR | -0.559 ± 0.61
75 | RRGEPIKKIPACGGSLCVR | -0.368 ± 0.47
76 | RRGGFG | -0.085 ± 0.69
77 | RRGSCLRFKV | 0.859 ± 0.97
78 | RRGTSFLQIYLACSHVQTSH | 4.56 ± 0.11
79 | RRHPS | inactive
80 | RRICSNCLFSGGIWNISGWV | 0.509 ± 1.1
81 | RRSYDSLFVVVRRINTCSSP | -0.852 ± 1.1
82 | RRTLEAFICL | -0.312 ± 0.84
83 | RSALVLVYGLTACLNGLGMC | 3.04 ± 0.097
84 | RSEGRRGRFNMWSLAFGDVP | -0.218 ± 0.3
85 | RSESNVMS | 0.397 ± 0.71
86 | RSFPSTFLLVLLQDSRC | 2.17 ± 0.24
87 | RSGTPQSERDGGGFTEVKKT | -0.205 ± 0.42
88 | RSGVVIVVLSVYGSSQRARG | -0.108 ± 0.4
89 | RSHSNISKSPLFVVGGAQFM | 0.995 ± 0.56
90 | RSLFPFSSLDMGHRRVGGKV | 0.384 ± 0.52
91 | RSNYVDVSGLSYGGLIAL | inactive
92 | RSRAISIKWCIGVGHPGNWV | inactive
93 | RSRKK | 0.34 ± 0.21
94 | RSSKGFMCMEMCLGWGQSTS | 3.41 ± 0.095
95 | RSSPHSGWQPVDLKY | -1.37 ± 2.4
96 | RSVGFEGMSNGWCATES | 0.634 ± 0.77

Row | Substance | amyloid nucleation score
97 | RSVMCGWDHPRDRVGAPEWL | 0.439 ± 0.71
98 | RSVMVMLPS | 0.022 ± 0.37
99 | RSVSRRGYVGAFPSQVWLGL | 0.214 ± 0.77
100 | RSWKNKFYPVCFSKSGSRF | -0.215 ± 0.41
101 | RSWPSCNCVAKANMCFARSL | -0.521 ± 0.39
102 | RSYEDGALVVVGMRFGDRLR | 0.336 ± 0.87
103 | RTLSWFRRKIIVLYLYYTHS | -0.272 ± 0.88
104 | RTMCRFPYGCMTRSYVSG | 0.159 ± 0.38
105 | RTMLMLMTSVLGGQGK | 7.02 ± 0.079
106 | RTPFFKRICK | -0.303 ± 0.69
107 | RVEKCWAMTDKCIRHRFLTS | 0.774 ± 0.48
108 | RVIFSGYWRAIFSLS | -0.383 ± 0.66
109 | RVIGE | 1.36 ± 0.49
110 | RVLRIVEAVVVSSCGFVDLR | 1.69 ± 0.25
111 | RVNLFSPYAWCIQIGSHHYG | 7.444 ± 0.047
112 | RVPATLNLLGVRQGRD | 0.26 ± 0.72
113 | RVRGSASMLLSLMCSFTMYE | 3.3 ± 0.14
114 | RVSGMAGFFTIKLLKRRSWA | -0.503 ± 0.62
115 | RVSRLPFDECSFLLVTVEGI | 0.311 ± 0.49
116 | RVSVVQFMSKVPTRLMVIEW | 0.705 ± 0.65
117 | RVTVIIFTLSRGYIIMSRNR | -1.12 ± 1.1
118 | RVTYNSETTRCFCEVFAPYR | -0.875 ± 2.4
119 | RVYYLMDLIACCPYSLGHRN | 8.606 ± 0.051
120 | RWCWWFFSSYAFFRSNISWV | -0.197 ± 0.42

Row | Substance | amyloid nucleation score
121 | RWESKRRRRGRYGFWSVSVR | 0.129 ± 0.35
122 | RWGGDALNAWHASDSSVGLR | -1.01 ± 0.73
123 | RWMSYHIVPRRGSYCVTTLT | 0.492 ± 0.85
124 | RWPVFNSCLSSSPRRAEYRY | 0.616 ± 0.59
125 | RWRLFLRAMSLYDDVSHASA | 0.287 ± 0.23
126 | RWSIELCVRM | -0.367 ± 0.51
127 | RWSLGGICVYVGLNEFVLMI | 2.56 ± 0.22
128 | RWVYSTRNHLKIVRNNKSEL | -2.15 ± 2.4
129 | RYATSMYPL | 0.069 ± 0.56
130 | RYCVGLVRICLKLGVREICS | 1.01 ± 0.97
131 | RYGRYSCSIIEGLCLMSSKW | 0.676 ± 0.95
132 | RYMVGSENEIRL | 0.583 ± 0.29
133 | RYNRLCTSLGRFKVVKSILS | 0.131 ± 0.33
134 | RYSLFIVSYCDGHRSSTRNM | inactive
135 | RYVSVTGYDAQCRYCDKGTG | -0.326 ± 0.44
136 | RYYVSSLRPVRRQSRKDGCG | -0.414 ± 0.63
137 | RYYYAQEWPVALFLSRPKVP | 0.406 ± 0.63
138 | SACQLFGVMVPEHRRALMVW | 0.018 ± 0.42
139 | SADKSSFKPFLESTASRVQI | -0.62 ± 1.1
140 | SAELKDLRGKQLLAGGP | 0.53 ± 1.1
141 | SAIMEVLRMDDTCLWSNWVM | 0.057 ± 0.37
142 | SAMAWIPFTISPRFEFRTCN | 5.16 ± 0.061
143 | SASGAWSGWPHRKVGYGSSL | 0.664 ± 0.36
144 | SATASNGRMAGSVSSWRKRW | 0.219 ± 0.36

Row | Substance | amyloid nucleation score
145 | SAVSMVR | -0.594 ± 0.55
146 | SAVVTRMGGGLKLRTWHEGN | 0.53 ± 0.55
147 | SAVWEVVEGDVLMWSYMKSP | 0.019 ± 0.33
148 | SCAYQGKLSIAAMLVSGFGC | 1.16 ± 0.97
149 | SCDYGL | 0.512 ± 0.63
150 | SCERW | -0.111 ± 0.45
151 | SCKGQPARVTCETRFTGYER | 2.32 ± 0.49
152 | SCLPFLGYPFQDVGLIFLVA | 0.749 ± 0.51
153 | SCLWSSCCVV | 0.171 ± 0.44
154 | SCMRSKWKNTWLKYRYVNCI | -0.493 ± 0.62
155 | SCNWDRNVLDMFFLN | inactive
156 | SCQSALLRILGSRVSFQARA | -0.192 ± 0.49
157 | SCRLIDWVPSHSRYRTFCCE | -0.386 ± 0.37
158 | SCTFKMMMGSVLL | 4.45 ± 0.067
159 | SCVAVSNNMILPRVSGLFEG | 2.55 ± 0.15
160 | SCVLESIQEFWS | -0.3 ± 0.24
161 | SCYMHVR | 0.372 ± 0.52
162 | SDDRLATCTFCLYSRIKQVK | -0.651 ± 1.7
163 | SDMLK | 0.324 ± 0.43
164 | SDQSPFLIGVPWFVIYNRGG | 1.69 ± 0.11
165 | SDSFLSSYHSFMRDVWV | 0.872 ± 0.58
166 | SDVEEGLRL | 1.08 ± 0.57
167 | SDYIWWRLCGGIKCQGGELG | -1.74 ± 2.1
168 | SDYSLTCMGVYGEGKTRGNL | 0.045 ± 0.32
